Results from article PMC4977500.

Target: RAIDD DD (UniProt P78560)
Experiment: native gel or EMSA; native-PAGE on a PhastSystem, 8-25% acrylamide gradient gels, Coomassie staining; complexes in 20 mM Tris pH 8.0, 50 mM NaCl; pre-incubated with or without peptide for 1 hour at room temperature; complex band without peptide taken as 100%

Sequence of RAIDD DD (P78560 94-199): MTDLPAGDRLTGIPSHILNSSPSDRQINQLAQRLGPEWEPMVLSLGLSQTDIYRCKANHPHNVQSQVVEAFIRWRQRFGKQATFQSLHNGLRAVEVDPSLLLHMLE

percent of RAIDD DD:PIDD DD complex formation blocked at 30 μM peptide: 50%
Substance: TAT-Y814A (previously generated TAT-fused PIDD peptide with the mutation Y814A)
